The source of these data is PMC2481429.

What is called Kd is the constant that tells how readily two partners part at equilibrium.

Chain of U2AF65 (Homo sapiens) (P26368 whole entry, one chain of several): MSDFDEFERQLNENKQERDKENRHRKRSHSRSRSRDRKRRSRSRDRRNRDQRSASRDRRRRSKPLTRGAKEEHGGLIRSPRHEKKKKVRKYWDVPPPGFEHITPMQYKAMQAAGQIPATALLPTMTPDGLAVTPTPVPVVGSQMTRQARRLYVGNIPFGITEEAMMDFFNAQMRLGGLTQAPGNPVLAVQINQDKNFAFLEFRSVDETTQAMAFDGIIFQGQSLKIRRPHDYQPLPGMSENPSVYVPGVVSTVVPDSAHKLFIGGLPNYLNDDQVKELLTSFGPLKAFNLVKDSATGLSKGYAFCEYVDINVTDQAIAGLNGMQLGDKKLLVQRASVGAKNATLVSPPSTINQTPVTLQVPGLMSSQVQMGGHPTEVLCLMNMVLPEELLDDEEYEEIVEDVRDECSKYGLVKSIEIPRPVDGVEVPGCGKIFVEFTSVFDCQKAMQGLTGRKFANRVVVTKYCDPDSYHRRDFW

The first series concerns the target U2AF65 (Homo sapiens) (UniProt P26368). Put plainly: EMSA. The following applies: Gel shift with constant 5'-32P RNA and varying U2AF65, triplicate; buffer, salt, pH and temperature not given (as previously described, ref 49). On the technique in general: Mobility shift assays separate free from complexed probe on a gel.
“CAAAGGCGUUGGUUUUGUUUCCACAG [INSR intron 10 PY tract]”: the Kd is 8800 nM.
“GCCCUGACCCCUUUUUUUUGCUGCAG [LCATmut intron 4 PY tract]”: the Kd was 120 nM.
As to “CCGCCCACCCCCUCCCCUCACCGCAG [BRUNOL4 intron 9 PY tract]”, the dissociation constant Kd turned out to be 3400 nM.
In the case of “GCCCUGACCCCUUCCACCCGCUGCAG [LCAT intron 4 PY tract]”, the Kd turned out to be 1900 nM.
On to “UUCGUGCUGACCCUGUCCCGUAUUAGUCCACAGCUGCA [ADMLmut PY tract]”, for which the Kd came to 15800 nM.
Regarding “UAAUUCUUUUUUUCUUUCUGCCCUAG [SR140 intron 9 PY tract]”, the equilibrium dissociation constant (Kd) was 30 nM.
Regarding “UCACCACUCCUUUCUCUUUCAUUCAG [U2AF2 intron 6 PY tract]”, the Kd is 80 nM.
Consider “UUCGUGCUGACCCUGUCCCUUUUUUUUCCACAGCUGCA [ADML PY tract]”, for which the dissociation constant Kd is 120 nM.

The series is the same for the next values; noted with them: estimated (asterisk), saturation not reached; Gel shift with constant 5'-32P RNA and varying U2AF65, triplicate; buffer, salt, pH and temperature not given (as previously described, ref 49).
On to “CCCUGGCUCACUCCCCUGCCCUGCAG [ITGB4 intron 31 PY tract]”, for which the dissociation constant (Kd) is 52000 nM.

The same series, now with this note: estimated (asterisk); no detectable binding at concentrations tested; Gel shift with constant 5'-32P RNA and varying U2AF65, triplicate; buffer, salt, pH and temperature not given (as previously described, ref 49).
In the case of “CAUGUGCUCGCUGCCUGCUAAUUAAG [MBNL1 intron 6 PY tract]”, the dissociation constant Kd is 100000 nM.
